Three compounds from patent publication US10648979B2, “Molecular probes for detecting gram-negative bacteria in vitro and in vivo” (priority 2014, dated 2020) can be followed below.

Like-named read-outs stand apart in the source and are kept apart here. Bridge positions count the residues as written; N and C are the ends. Square brackets hold non-standard residues; d marks the D form. Peptide text beside a SMILES is read from it. * marks the point of attachment. ξ: configuration not given here. X1 = CN(C)c1ccc2c(c1)Oc1cc(N(C)C)ccc1C21OC(=O)c2ccc(C(=O)*)cc21; MethylRed = CN(C)c1ccc(/N=N/c2ccccc2C(=O)*)cc1; NBD = O=[N+]([O-])c1ccc(*)c2nonc12; dDab = NCC[C@@H](N)C(=O)O; Dab = NCC[C@H](N)C(=O)O; AEEA = NCCOCCOCC(=O)O; ξDab = NCCC(N)C(=O)O; ξK = NCCCCC(N)C(=O)O; ξV = CC(C)C(N)C(=O)O; ξP = O=C(O)C1CCCN1; ξA = CC(N)C(=O)O

The test system of data set [1] is Methicillin sensitive Staphylococcus aureus (MSSA). The experiment in a line: Elastase dependant bacterial labelling in co-culture of bacteria and isolated human neutrophils (confocal). Format: cell-based. An excerpt:
FIG. 2A: Elastase dependant bacterial labelling scheme.
FIG. 2B: Elastase dependant bacterial labelling in vitro.
A first example of elastase sensitive probes (shown schematically in FIG. 2A) comprises methyl red (acting as a dark quencher) connected via the peptide sequence AAPV (acting as the linker) to 7-nitrobenz-2-oxa-1,3-diazole (NBD) and the ubiquicidin fragment UBI29-41 (together acting as the probe element). Accordingly, the NBD fluorescence is quenched by the methyl red and no fluorescent signal will be observed (i.e. the methyl red and NBD are acting as a FRET pair) and therefore, whether or not the probe is bound to any bacteria that may be present in the target area via UBI29-41, no signal is observed using confocal microscopy.
When the probe is in the presence of human neutrophil elastase (HNE), such as in inflamed tissue, HNE cleaves the peptide sequence of the linker, to thereby free the probe element from the methyl red quencher. Accordingly, the NBD fluorophore is no longer quenched and produces a fluorescent signal. In addition, due to the environmental sensitivity of the NBD, the signal produced is greatly amplified if the NBD is in a hydrophobic environment, such as within a cell membrane.

Data set [2] is described as follows: Stability in saline or BALF from patients with Acute Lung Injury (MALDI-TOF / FTMS). The settings on record: incubated for 30 minutes. Here is the method:
FIG. 16: NBD-UBIdend is stable in ALI BALF. […] NBD-PMX is stable in ALI BALF.
Secondly we assessed stability of the probes in broncholalveolar lavage fluid (BALF) from patients with Acute Lung Injury (ALI) by Fourier Transform Mass Spectrometry (FTMS) and Matrix-Assisted Laser Desorption/Ionization Time-of-Flight Mass Spectrometry (MALDI-TOF MS) analysis. NBD-UBINle, NBD-UBIdend and NBD-PMX were incubated for 30 minutes with BALF (FIG. 16).
In vitro labelling was assessed on benchtop confocal in the presence of compound with bacteria and labelling was compared to NBD-UBINle which served as a reference control for bacterial labelling. […] For the ex vivo and in vivo ovine lung experiments each compound was assessed in a control lung segment (instilled with 2 ml PBS) or a bacterial segment (instilled with 2 ml of 2 optical density of bacteria). Following bacterial instillation, the compound was administered to the segment of interest and this was imaged by probe based confocal laser endomicroscopy (FCFM).
Probe was added to saline or pooled BALF from patients with ALI incubated for 30 minutes. A ZipTip (C-18, 0.2 μL) with 5 μL MeCN (with 0.1% TFA as an additive) followed by 20 μL of H2O was washed. The ZipTip was loaded with the sample, washed and eluted into 5 μL of 80% aq. MeCN (with 0.1% TFA as an additive). The sample was analysed by MALDI-TOF (PerSeptive Biosystems Voyager DETMSTR MALDI-TOF mass spectrometer (Applied Biosystems, Foster City, Calif.)).

A short description of data set [3]: Rodent single dose intratracheal toxicity assessment. Format: in vivo, Mice. More on the design: Creatinine / Bilirubin / Albumin: unit not given here.
In the next data set the test system is human erythrocytes. The experiment in a line: Haemolysis assay. The settings on record: up to 100 μM; 0.2% Triton-X = 100%.
Data set [4] relates to Pseudomonas aueriginosa (PA). From the text:
(§1) FIG. 3A: Elastase dependant bacterial labelling scheme. The fluorophore on the bacterial binding component is quenched by a different fluorophore of a longer wavelength meaning that no fluorescence is seen upon binding to bacteria. Cleavage of the elastase specific sequence AAPV liberates the bacterial binding component (PV-NBD-UBI) from the quencher (TAMRA). TAMRA reports the presence of activated neutrophils by endocytic uptake.
(§2) FIG. 3B: Elastase dependant bacterial labelling in vitro.
In a second example, the probe comprises carboxytetramethylrhodamine (TAMRA, acting as a fluorescent quencher) connected to NBD and polymyxin (acting as the probe element) via the peptide sequence AAPV (acting as the linker). Accordingly, the NBD fluorescence is quenched by the TAMRA to give rise to a fluorescent signal from TAMRA (i.e. the TAMRA is accepting the energy absorbed by the NBD and is itself fluorescing, TAMRA and NBD are acting as a FRET pair). Accordingly, whether or not the polymyxin has bound to any bacteria that may be present, only a signal from the TAMRA is observed.

In another data set the test system is activated neutrophils. The conditions noted are these: TAMRA signal (red).
Excerpt: as §1, §2

A further data set has as its target elastase (Homo sapiens, UniProt P08246). The conditions noted are these: ex 525, Em 580.

Chain of elastase (P08246 30-247 limits assumed): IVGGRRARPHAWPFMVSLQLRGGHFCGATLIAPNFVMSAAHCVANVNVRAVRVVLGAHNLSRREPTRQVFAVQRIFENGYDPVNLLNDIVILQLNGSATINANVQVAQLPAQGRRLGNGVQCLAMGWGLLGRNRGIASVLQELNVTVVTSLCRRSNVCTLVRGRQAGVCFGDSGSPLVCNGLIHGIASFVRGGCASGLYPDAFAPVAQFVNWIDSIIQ
Protocol for human erythrocytes: Positive control was 0.2% Triton-X and values corrected to represent 100% haemolysis for Triton-X.
Erythrocytes were isolated from freshly drawn, anticoagulated human blood and resuspended to 20 vol % in PBS (pH 7.4). In a 96-well microtiter plate, 100 μl of erythrocyte suspension was added to 100 μl of NLLP solution in PBS (prepared by 1:2 serial dilutions) or 100 μl of PBS in the case of negative controls. One-hundred percent haemolysis wells contained 100 μl of red cell suspension with 100 μl of 0.2 vol % Triton X-100. The plate was incubated for 1 h at 37° C., and then each well was diluted with 150 μl of PBS. The plate was then centrifuged at 1,200 g for 15 min, 100 μl of the supernatant from each well was transferred to a fresh microtiter plate, and A350 was measured. Percentage of haemolysis was determined as (A−A0)/(Atotal−A0)×100, where A is the absorbance of the test well, A0 the absorbance of the negative controls, and Atotal the absorbance of 100% haemolysis wells, all at 350 nm on a Biotek plate reader.

In the case of `CSCCC(NC(=O)C(CCCNC(=N)N)NC(=O)C(CCCNC(=N)N)NC(=O)C(CCCCN)NC(=O)C(C)NC(=O)C(CCCNC(=N)N)NC(=O)CNC(=O)C(NC(=O)COCCOCCNC(=O)C(CCCCNc1ccc([N+](=O)[O-])c2nonc12)NC(=O)C(NC(=O)C1CCCN1C(=O)C(C)NC(=O)C(C)NC(=O)c1ccccc1/N=N/c1ccc(N(C)C)cc1)C(C)C)C(C)O)C(=O)NC(CCC(N)=O)C(=O)NC(Cc1ccc(O)cc1)C(=O)NC(CC(N)=O)C(=O)NC(CCCNC(=N)N)C(=O)NC(CCCNC(=N)N)C(N)=O` (centres unmarked) [Example 1] (MethylRed-AAPVK(NBD)[AEEA]TGRAKRRMQYNRR-NH2; configuration not given here), the “bacterial labelling in co-culture of bacteria and neutrophils” value in data set [1] (confocal, neutrophil derived HNE present) is “ability of the probe to be cleaved by neutrophil derived HNE and to label bacteria”. The “bacterial labelling with elastase inhibitor” value in data set [1] (elastase inhibitor sivelestat added to the medium) was “no labelling was observed”.
For `CCCC[C@H](NC(=O)[C@H](CCCNC(=N)N)NC(=O)[C@H](CCCNC(=N)N)NC(=O)[C@H](CCCCN)NC(=O)[C@H](C)NC(=O)[C@H](CCCNC(=N)N)NC(=O)CNC(=O)[C@@H](NC(=O)COCCOCCNc1ccc([N+](=O)[O-])c2nonc12)[C@@H](C)O)C(=O)N[C@@H](CCC(N)=O)C(=O)N[C@@H](Cc1ccc(O)cc1)C(=O)N[C@@H](CC(N)=O)C(=O)N[C@@H](CCCNC(=N)N)C(=O)N[C@@H](CCCNC(=N)N)C(=O)NCCOCCOCC(=O)NCCCOCC(COCCCNC(=O)COCCOCCNC(=O)[C@H](CCCNC(=N)N)NC(=O)[C@H](CCCNC(=N)N)NC(=O)[C@H](CC(N)=O)NC(=O)[C@H](Cc1ccc(O)cc1)NC(=O)[C@H](CCC(N)=O)NC(=O)[C@H](CCCC)NC(=O)[C@H](CCCNC(=N)N)NC(=O)[C@H](CCCNC(=N)N)NC(=O)[C@H](CCCCN)NC(=O)[C@H](C)NC(=O)[C@H](CCCNC(=N)N)NC(=O)CNC(=O)[C@@H](NC(=O)COCCOCCNc1ccc([N+](=O)[O-])c2nonc12)[C@@H](C)O)(COCCCNC(=O)COCCOCCNC(=O)[C@H](CCCNC(=N)N)NC(=O)[C@H](CCCNC(=N)N)NC(=O)[C@H](CC(N)=O)NC(=O)[C@H](Cc1ccc(O)cc1)NC(=O)[C@H](CCC(N)=O)NC(=O)[C@H](CCCC)NC(=O)[C@H](CCCNC(=N)N)NC(=O)[C@H](CCCNC(=N)N)NC(=O)[C@H](CCCCN)NC(=O)[C@H](C)NC(=O)[C@H](CCCNC(=N)N)NC(=O)CNC(=O)[C@@H](NC(=O)COCCOCCNc1ccc([N+](=O)[O-])c2nonc12)[C@@H](C)O)NC(N)=O` (some centres unmarked) [NBD-UBIdend], in data set [2], the “stability in ALI BALF” value is “demonstrate stability”; the stability in saline entry was “readily identified in both saline and BALF incubated samples”. In data set [3] (48 hours), this compound came in with an ALP of 222.3 ± 80.3 u/l, an ALT of 24.0 ± 1.2 u/l, an Albumin of 22.3 ± 1.8 and a BALF of 477.1 ± 150.6 Cells/ul. Besides, in data set [3] (48 hours), the Bilirubin came to 2 ± 0, the Creatinine is reported as 8.3 ± 0.7, the “Cytospin (% of Neutrophils)” value came out at 3.6% and the “Cytospin (% of Red Blood Cells)” value came to 0%. The compound also showed a PenH value in data set [3] (48 hours) of 0.5 ± 0.06. In addition, the “Cytospin (% of Mononuclear cells)” value in data set [3] (48 hours, single intratracheal 100 μg/25 g mouse) is listed as 96.4%. Moreover, in data set [3] (14 days), the ALP is 227.0 ± 27.1 u/l, the ALT is 28.3 ± 1.9 u/l, the Albumin is listed as 25.0 ± 1.2 and the BALF turned out to be 342.7 ± 6.5 Cells/ul. In addition, in data set [3] (14 days), the Bilirubin is given as 2 ± 0, the Creatinine is on record as 9.0 ± 1.5, the “Cytospin (% of Neutrophils)” value came out at 0% and the “Cytospin (% of Red Blood Cells)” value came out at 0%. The compound further registered a PenH value in data set [3] (14 days) of 0.5 ± 0.04. Also, the “Cytospin (% of Mononuclear cells)” value in data set [3] (14 days, single intratracheal 100 μg/25 g mouse) is 100%. Besides, the “organ toxicity (histology)” value in data set [3] (single instillation, 48 hours and 14 days, compared to PBS control) is given as “no organ toxicity”. Further, in data set [3] (single intratracheal 100 μg/25 g mouse, 48 hours and 14 days), the toxicity result is “no toxicity”. Besides, the red cell haemolysis entry in the data set with human erythrocytes is listed as “no red cell haemolysis”.
On to `CC(C)C[C@@H]1NC(=O)[C@@H](Cc2ccccc2)NC(=O)[C@@H](CCN)NC(=O)C(NC(=O)[C@H](CCN)NC(=O)[C@@H](NC(=O)COCCOCCNC(=O)C(CCCCNc2ccc([N+](=O)[O-])c3nonc23)NC(=O)C(NC(=O)C2CCCN2C(=O)C(C)NC(=O)C(C)NC(=O)c2ccc3c(c2)C2(OC3=O)c3ccc(N(C)C)cc3Oc3cc(N(C)C)ccc32)C(C)C)[C@@H](C)O)CCNC(=O)[C@@H]([C@H](C)O)NC(=O)[C@H](CCN)NC(=O)[C@H](CCN)NC1=O` (some centres unmarked) [TAMRA-AAPV-NBD-PMX] (X1-[ξA][ξA][ξP][ξV][ξK](NBD)[AEEA]T[Dab][ξDab][dDab][dF]L[Dab][Dab][dT]; lactam 9-C), for which the bacterial labelling entry in data set [4] (activated neutrophils, NBD signal (green)) is “bacterial labelling (shown in green) in an elastase dependent manner”; in data set [4] (unactivated neutrophils), “no labelling in the presence of unactivated neutrophils”. Also, the “labelling of activated neutrophils” value with activated neutrophils is on record as “labelling of activated neutrophils (shown in red) in an elastase independent manner”. Also, the “fluorescence of TAMRA following cleavage, with elastase inhibitor” value on elastase (elastase inhibitor) is “inhibited with an elastase inhibitor”. In addition, the “fluorescence of TAMRA following cleavage” value on elastase (with elastase) is on record as “increase in fluorescence of TAMRA-AA (cleaved compound) compared to TAMRA-AAPV-NBD-PMX in an elastase dependent manner”.
